In US11913033B2, “Luciferases and methods for using same” (LIGHT BIO, INC., priority 2017, dated 2024):

Key:
fungal luciferases = assay: Bioluminescence spectra of lysed transfected HEK293N cells with 3-hydroxyhispidin or analogs; format: biochemical; conditions: luciferin 660 μg/ml, pH 8.0, cell lysate
Protocol: Plasmids comprising coding sequences of fungal luciferases necessary for expression in mammalian cells were obtained as described in Example 3 and used for the transfection of HEK293N cells. 24 hours after the transfection procedure, the cells were detached from dishes using trypsin-Versen solution (0.025% trypsin), the medium was substituted with a phosphate saline buffer, pH 8.0, by centrifugation, the cells were resuspended and lysed using ultrasound; 3-hydroxyhispidin or one of analogs thereof ((E)-6-(4-diethylamino)styryl)-3,4-dihydroxy-2H-pyran-2-one, (E)-3,4-dihydroxy-6-(4-hydroxystyryl)-2H-pyran-2-one, E)-6-(2-1H-indol-3-yl)vinyl)-3,4-dihydroxy-2H-pyran-2-one, (E)-6-(2-(1,2,3,5,6,7-hexahydropyrido[3,2,1-ij]quinoline-9-yl)vinyl)-3,4-dihydroxy-2H-pyran-2-one and (E)-3,4-dihydroxy-6-(2-(6-hydroxynaphthalene-2-yl)vinyl)-2H-pyran-2-one) at a concentration of 660 μg/ml was added to the medium.
Varian Cary Eclipse spectrofluorimeter was used to detect bioluminescence spectra. All the samples emitted light with all examined luciferins.

[1] = system: CT26 cells (Mus musculus carcinoma cells); assay: Labelling of implanted tumour cells in a living mouse, IVIS imaging; format: in vivo; conditions: subcutaneous CT26 cells; luciferin mixture 0.5 mg each intraperitoneally
Protocol: Vector containing the coding sequence of luciferase from Neonothopanus nambi under the control of a cytomegaloviral promoter was obtained as described in Example 3. In addition, a humanized nucleotide sequence encoding luciferase from Photinus pyralis firefly was synthesized and cloned into the same vector.
The obtained constructs were used to transfect CT26 cells (Mus musculus carcinoma cells). The cells expressing luciferase from Neonothopanus nambi were injected subcutaneously into the left half of a mouse's back, while cells expressing luciferase of Photinus pyralis were injected in the same manner into the right half of a mouse's back. 10 minutes after injection, a mixture of fungal luciferin (0.5 mg) and Photinus pyralis firefly luciferin (0.5 mg) was injected intraperitoneally. Bioluminescence of the mouse was then visualized using IVIS Spectrum CT (PerkinElmer).

[2] = Bioluminescence of isolated recombinant luciferase fragments from E. coli with 3-hydroxyhispidin; format: biochemical; conditions: 3-hydroxyhispidin added
Protocol: Sequence SEQ ID No: 52 was operably linked to the 5′ end of the nucleic acids encoding functional fragments of luciferases (SEQ ID NOs: 19, 21, 23, 25, 27, 29, 31, 33); the obtained constructs were cloned into pET-23 vector using BamHI and HindIII restriction endonucleases. The vector was used to transform Escherichia coli cells of BL21-CodonPlus strain (the derivative of Stratagene BL21-Gold high-yield strain) The cells were plated on Petri dishes containing LB medium comprising 1.5% agar, 100 μg/ml of ampicillin and 100 μg/ml of chloramphenicol, and incubated overnight at 37° C. Escherichia coli colonies were then transferred to 4 ml of liquid LB medium supplemented with ampicillin and chloramphenicol and incubated overnight at 37° C., with rocking. 1 ml of the overnight culture was transferred to 100 ml of Overnight Express Autoinduction medium (Novagen) containing preliminary added ampicillin and chloramphenicol. The culture was grown at 37° C. for 2.5 hours until it reached an optical density of 0.6 OE at 600 nm, and then it was grown at room temperature for 16 hours. The cells were then pelleted by centrifugation at 4500 rpm for 20 minutes in Eppendorf 5810R centrifuge, resuspended in 35 ml of buffer (50 mM Tris HCl, pH 8.0, 150 mM NaCl) and sonicated. […]

HEK293NT and HeLa cells = assay: Luminescence of mammalian cells transfected with humanized luciferases after adding 3-hydroxyhispidin; format: cell-based; conditions: 3-hydroxyhispidin 660 μg/ml, 24 hours after transfection
Excerpt: Coding sequences of luciferases obtained as shown in examples 1 and 2 were optimized (humanized) for expression in mammalian cells. Humanized nucleic acids were obtained by oligonucleotide synthesis using standard techniques. The nucleotide profile of humanized nucleic acids is shown in SEQ ID NOs: 44-51, the amino acid profile of the corresponding proteins is identical to wild-type proteins shown in SEQ ID NOs: 2, 4, 6, 8, 10, 12, 14, 16. The obtained nucleic acids were cloned into pmKate2-keratin vector (Evrogen, Russia) using NheI and NotI restriction sites instead of a sequence encoding mKate2-keratin fusion protein. Plasmid DNA was purified and transfected into HEK293NT and HeLa cells using FuGENE HD Transfection Reagent (Promega, USA) according to the manufacturer's protocol. 24 hours after the transfection procedure, 3-hydroxyhispidin at a concentration of 660 μg/ml was added to the medium, and cell luminescence was detected using IVIS Spectrum CT (PerkinElmer). Intensity of light emission of all samples was by an order of magnitude and greater than the signal coming from the non-transfected control cells (FIG. 2). […]

[3] = Bioluminescence spectrum of luciferase expressed in Pichia pastoris, supernatant plus 3-hydroxyhispidin; format: biochemical; conditions: 3-hydroxyhispidin (25 μM) in 1% DDM
Protocol: In order to analyse the bioluminescence of expressed luciferase, Pichia pastoris colonies in which luminescence was observed were isolated and grown in 750 ml flasks filled with 250 ml of YPD medium for 72 hours at 30° C. and stirred at 200 rpm. Luciferase-expressing cells were then pelleted by centrifugation at 5000 g for 15 minutes at 4° C. The obtained pellet was resuspended in a 0.1 M phosphate buffer, pH 7.4, comprising 0.1% DDM for two hours at 4° C. The suspension was centrifuged at 21000 g for 30 min at 4° C. The bioluminescence reaction was activated by adding 750 μl of the obtained supernatant to 250 μl of the solution of 3-hydroxyhispidin (25 μM) in 1% DDM. Varian Cary Eclipse spectrofluorimeter was used to detect bioluminescence.

cells of HEK293NT line = assay: Cell labelling: luciferase co-transfected into HEK293NT cells, microscopy; format: cell-based, human
Protocol: Vector containing luciferase from Neonothopanus nambi under the control of a cytomegaloviral promoter obtained as described in Example 3 was co-transfected with pTurboFP635-N vector (Evrogen, Russia) encoding the red fluorescent protein, into the cells of HEK293NT line. Transfection was performed using FuGENE HD transfection reagent (Promega) according to the protocol recommended by the manufacturer. 24 hours after the transfection procedure, 3-hydroxyhispidin was added to the medium up to a final concentration of 660 μg/ml; and cell luminescence was analysed using Leica DM6000 microscope with a 20× objective. The cells were visualized in transmitted light, in the green and red channels for detecting fluorescence (FIG. 6).

## O=c1oc(/C=C/c2c[nH]c3ccccc23)cc(O)c1O [(E)-6-(2-1H-indol-3-yl)vinyl)-3,4-dihydroxy-2H-pyran-2-one]
Fungal luciferases
  luminescence optimum displacement: shift to the short-wavelength region

## O=c1oc(/C=C/c2ccc3cc(O)ccc3c2)cc(O)c1O [(E)-3,4-dihydroxy-6-(2-(6-hydroxynaphthalene-2-yl)vinyl)-2H-pyran-2-one]
Fungal luciferases
  luminescence optimum displacement: shift to the long-wavelength region
  wavelength of significantly emitted photons: more than 580 nm

## luciferase from Photinus pyralis: firefly luciferase from Photinus pyralis, humanized sequence, comparison in mouse tumour labelling [reference compound]
[1]
  intensity of light emission of tumour: 21000000 cu

B1: functional fragment of luciferase from Neonothopanus nambi: recombinant Neonothopanus nambi luciferase with N-terminal transmembrane domain removed, expressed in E. coli (protein)
chain: IIRRDYQTFLEVGPSYAPQNFRGYIIVCVLSLFRQEQKGLAIYDRLPEKRRWLADLPFREGTRPSITSHIIQRQRTQLVDQEFATRELIDKVIPRVQARHTDKTFLSTSKFEFHAKAIFLLPSIPINDPLNIPSHDTVRRTKREIAHMHDYHDCTLHLALAAQDGKEVLKKGWGQRHPLAGPGVPGPPTEWTFLYAPRNEEEARVVEMIVEASIGYMTNDPAGKIVENAK
modifications: Amino acid sequence of the functional fragment of luciferase from Neonothopanus nambi
notes: recombinant Neonothopanus nambi luciferase with N-terminal transmembrane domain removed, expressed in E. coli
[2]
  intensity of emitted light, rank among recombinant functional fragments: highest intensity

B2: SEQ ID No:51 with the replacement of valine with isoleucine at position 146: Panellus stipticus luciferase variant with valine replaced by isoleucine at position 146 (protein, listed as Panellus stipticus)
chain: MNINLKALIGVCAVLITAAVFPFVRKDYHTFLEGGPSYAPQNLQGYIIVLVLSLFRGEETGLEIYDRLPEKRRWLEELPVREGPRPKTTSHIIQRQLNQHVDPDFGMNSLKGSVIRRLQSRHQDITQLALSKFEFHAEAIFLRPDIAINDPKHVPSHDTVRRTKREIAHMHDYHDYTCHLALAAQDGKQVIAKGWGQRHPLAGPGMPGPPTEWTFLYAPRNEAEVQVLETIIEASIGYMSNAPALGGSE
HEK293NT and HeLa cells
  oxidation of 3-hydroxyhispidin in a bioluminescent reaction: capable of the oxidation of 3-hydroxyhispidin

B3: functional fragment of luciferase from Omphalotus olearius: recombinant Omphalotus olearius luciferase with N-terminal transmembrane domain removed, expressed in E. coli (protein)
chain: FIRKDYQTFLEVGPSYAPQNLQGYIIVCVLSLFRQEQKDVAIYDRLPEKRRWLGDLPFREGPRPSITSHIIQRQRTQLADAEFATKELIGKIIPRVQARHTNTTFLSTSKFEFHAQAIFLLPSIPINDPQNIPSHDTVRRTKREIAHMHDYHDCTLHLALAAQDGKEVLEKGWGQRHPLAGPGVPGPPTEWTFLYAPRSEEEVRVVEMIVEASVVYMTNDPADKIVEATVQGTEE
modifications: Amino acid sequence of the functional fragment of luciferase from Omphalotus olearius
notes: recombinant Omphalotus olearius luciferase with N-terminal transmembrane domain removed, expressed in E. coli
[2]
  intensity of emitted light, rank among recombinant functional fragments: lowest intensity

B4: luciferase from Neonothopanus nambi: fungal luciferase from Neonothopanus nambi oxidizing 3-hydroxyhispidin with emission of light (protein, listed as Neonothopanus nambi)
chain: MRINISLSSLFERLSKLSSRSIAITCGVVLASAIAFPIIRRDYQTFLEVGPSYAPQNFRGYIIVCVLSLFRQEQKGLAIYDRLPEKRRWLADLPFREGTRPSITSHIIQRQRTQLVDQEFATRELIDKVIPRVQARHTDKTFLSTSKFEFHAKAIFLLPSIPINDPLNIPSHDTVRRTKREIAHMHDYHDCTLHLALAAQDGKEVLKKGWGQRHPLAGPGVPGPPTEWTFLYAPRNEEEARVVEMIVEASIGYMTNDPAGKIVENAK
[3]
  bioluminescence spectrum compared with Neonothopanus nambi mycelium bioluminescence: substantially identical
Cells of HEK293NT line; 3-hydroxyhispidin 660 μg/ml, 24 hours after transfection
  light signal of expressing cells: distinct light signal in the green region of the spectrum
Cells of HEK293NT line; HEK293NT cells
  toxicity of luciferase expression to the cells: No signs of toxicity
[1]
  intensity of light emission of tumour: 20000000 cu
